Laboratory results taken from EP4703474A1, “ANTI-LRRC15 ANTIBODY” (priority 2023, dated 2024).

Experiments:
[1] = test system: Esophageal carcinoma cell line EC-GI-10; test: In vivo antitumor effect, EC-GI-10 subcutaneous transplant model; conditions: 0.4 mg/kg, tail vein, on Day 35, female NSG mice
Description: (§1) The antitumor effects of the antibody-drug conjugates were evaluated by using animal models in which cells of a human tumor cell line had been transplanted into immunodeficient mice, or cells of a mouse tumor cell line had been transplanted into immunocompetent mice. 4 to 6 Week-old SCID mice (CB17/Icr-Prkdc[scid]/CrlCrlj, Jackson Laboratory Japan, Inc.), NSG mice (NOD.Cg-Prkdcscid Il2rgtm1Wjl/SzJ, Jackson Laboratory Japan, Inc.), or B6J mice (C57BL/6J, Jackson Laboratory Japan, Inc.) were habituated for 3 days or more under SPF conditions before experimental use. The mice were fed with sterilized solid feed and given sterilized tap water. The major and minor diameters of the transplanted tumors were measured twice a week with an electronic digital caliper (Mitutoyo Corporation), and the estimated tumor volume was calculated using the following formula. Estimated tumor volume (mm^3) = 1/2 × major diameter (mm) × [minor diameter (mm)]^2 All antibody-drug conjugates were diluted with ABS and administered into the tail vein at doses shown in each Example. In addition, ABS (vehicle) or control hIgG-PBD prepared in Reference Example 4 was administered as the control group, in a similar manner. 5 to 6 Mice were used per group in the experiment. To analyze the LRRC15 expression in mouse tumor models, immunohistochemical staining of LRRC15 was performed. […]

[2] = test system: Pancreatic carcinoma cell line BxPC-3 and human adipose tissue-derived mesenchymal stem cells; test: In vivo antitumor effect, BxPC-3 co-transplanted with mesenchymal stem cells; conditions: BxPC-3 and MSC at 1:3; 0.4 mg/kg, tail vein, on Day 27; female SCID mice
Description: as §1

[3] = test system: HER2-positive breast carcinoma cell line SUM190PT; test: In vivo antitumor effect, SUM190PT subcutaneous transplant model; conditions: 0.4 mg/kg, tail vein, on Day 32, female SCID mice
Description: as §1, with “experiment.” for “experiment. To analyze the LRRC15 expression in mouse tumor models, immunohistochemical staining of LRRC15 was performed.”

B1: H02L01-V1-PBD (conjugate)
heavy: EVQLVESGGGLVQPGGSLRLSCAASGFTFRDYYMAWVRQAPGKGLEWVSSIGFDESRTYYADSVKGRFTISRDDSKNTLYLQMNSLRAEDTAVYYCARHGVSKYSGDNWFAYWGQGTLVTVSSASTKGPSVFPLAPSSKSTSGGTAALGCLVKDYFPEPVTVSWNSGALTSGVHTFPAVLQSSGLYSLSSVVTVPSSSLGTQTYICNVNHKPSNTKVDKKVEPKSCDKTHTCPPCPAPEAAGGPSVFLFPPKPKDTLMISRTPEVTCVVVDVSHEDPEVKFNWYVDGVEVHNAKTKPREEQYNSTYRVVSVLTVLHQDWLNGKEYKCKVSNKALAAPIEKTISKAKGQPREPQVYTLPPSREEMTKNQVSLTCLVKGFYPSDIAVEWESNGQPENNYKTTPPVLDSDGSFFLYSKLTVDKSRWQQGNVFSCSVMHEALHNHYTQKSLSLSPGK
light: DIQMTQSPSSLSASVGDRVTITCKSSQGLLYSGDQKNYLAWYQQKPGKAPKLLIYWASTRQSGVPSRFSGSGSGTDFTLTISSLQPEDFATYYCQQYYDPPYTFGQGTKVEIKRTVAAPSVFIFPPSDEQLKSGTASVVCLLNNFYPREAKVQWKVDNALQSGNSQESVTEQDSKDSTYSLSSTLTLSKADYEKHKVYACEVTHQGLSSPVTKSFNRGEC
Question: For B1, which “antitumor effect (estimated tumor volume)” value (shortened to “antitumor effect”) [1] is on record?
Answer: antitumor activity higher than that of the vehicle and control hIgG-PBD

Question: And the “antitumor effect” value [2]?
Answer: antitumor activity higher than that of the vehicle and control hIgG-PBD

Question: And the “antitumor effect” value [3]?
Answer: antitumor activity higher than that of the vehicle and control hIgG-PBD
